Experimental data from patent EP4702986A1, “POLYPEPTIDE AND USE THEREOF” (Biocells (Beijing) Biotech Co., Ltd., priority 2023, dated 2024).
Several values for one entry are separate records, joined by “and”; a condition that tells them apart may be missing. Identical values can stand only once. Like-named read-outs stand apart in the source and are kept apart here. Numbered stars: 1 amine (or outer) side, 2 acyl side, 3 side chain; on linkers, the order of the positions; unused ones are H or OH. Square brackets hold non-standard residues; d marks the D form. Side chains are listed from the residue outwards. Ends that are not written are not given here. * marks the point of attachment. C18 diacid = O=C(O)CCCCCCCCCCCCCCCCC(=O)*; γGlu = O=C(O)[C@H](CCC(=O)[*:2])N[*:1]; Hexadienoyl(2E,4E) = C/C=C/C=C/C(=O)*; NMeI = CC[C@H](C)[C@H](NC)C(=O)O; NMeL = CN[C@@H](CC(C)C)C(=O)O; Fumaroyl = O=C(O)/C=C/C(=O)*; Suc = O=C(CCC(=O)[*:2])[*:1]; AEEA = NCCOCCOCC(=O)O

Biological target: T1, human ETB receptor (Homo sapiens, UniProt P24530)
T1 construct: expressed in transfected cells; host or cells: 293T-17 cells, transient transfection
T1 sequence (P24530 27-442): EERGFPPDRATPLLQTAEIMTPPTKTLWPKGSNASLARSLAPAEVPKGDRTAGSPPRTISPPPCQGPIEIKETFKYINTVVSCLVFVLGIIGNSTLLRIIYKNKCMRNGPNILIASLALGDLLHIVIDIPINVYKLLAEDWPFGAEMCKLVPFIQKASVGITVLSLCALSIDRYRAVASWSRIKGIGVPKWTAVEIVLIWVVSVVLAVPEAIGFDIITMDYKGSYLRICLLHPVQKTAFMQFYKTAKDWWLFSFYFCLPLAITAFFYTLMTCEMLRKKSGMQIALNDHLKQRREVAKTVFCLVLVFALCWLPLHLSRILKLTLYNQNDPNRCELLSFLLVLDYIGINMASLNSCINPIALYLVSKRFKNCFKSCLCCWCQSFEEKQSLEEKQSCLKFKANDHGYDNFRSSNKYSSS
Assay: Screening of polypeptides for activity on human ETB receptor (IP-One Gq kit, % of positive control IRL1620)
Format: cell-based
Experimental: 293T-17 cells were seeded at a density of 650,000 cells per well in a 6-well plate and cultured overnight in an incubator at 37°C and 5% CO2. Afterward, the cells were transfected with an expression vector, PCDNA3.1-hETB which contained a human ETB receptor gene, at a plasmid concentration of 2.5 µg per well. The cells were further cultured for 48 hours, and green fluorescence expression was observed under a fluorescence microscope. The cells were then digested with trypsin and counted. The activity of compounds on the human ETB receptor was determined with the IP-One Gq kit from Cisbio Bioassays. The cells were suspended in Stim Buffer provided in the kit and the cell suspension was added to a 96-well detection plate at 7 µL cell suspension (containing 30,000 cells) per well. The polypeptides to be screened for activity (prepared according to the Preparation Example of the invention) and polypeptide IRL1620 as positive control were dissolved in Stim B to be at a concentration of 2×, and 7 µL was added to the test cells, while 7 µL of PBS solution was added to the cells in the negative control wells. IRL1620 was used as the positive control polypeptide. The plate was sealed and incubated at 37°C for 1 hour in a cell culture incubator. Test wells, positive control wells, and PBS control wells were each added with 3 µL of IP1 d2 working solution and 3 µL of IP1 Tb cryptotate Antibody working solution. The plate was then sealed and incubated in the dark at room temperature (25°C±5°C) for 1 hour. The plate seal was removed, and the […] at 665 nm and 620 nm was measured with an ID5 microplate reader. The ratio of the acceptor emission signal to the donor emission signal, i.e., the value of (signal at 665 nm/signal at 620 nm)×10^4, was calculated for each well. With F1 representing the average value of values of signal at 665 nm/signal at 620 nm determined for the test sample at a specific concentration, F2 representing the average value of values of signal at 665 nm/signal at 620 nm determined for the positive control IRL1620 at the same concentration, and T1 representing the average value of values of signal at 665 nm/signal at 620 nm determined for the PBS negative control, the percentage of activity of the test polypeptide sample relative to the positive control sample IRL1620 is equal to (F1-T1)×100/(F2-T1). hETB sequence (NCBI accession number NM_000115.5).

Substance	hETBR agonist activity, percentage of activity relative to IRL1620	hETBR agonist activity, percentage of activity relative to IRL1620 (@10nM)	hETBR agonist activity, percentage of activity relative to IRL1620 (@1µM) [%@1µM]	hETBR agonist activity, percentage of activity relative to IRL1620 (@10µM) [%@10µM]
Fum-D cyclo(EEAK)YFAHK(-γE-AEEA-AEEA-ODDA)D(2-Abu)IW [BX-104]	-21.93%@100nM	-1299.77%@10nM	–	–
Fum-D cyclo(EEAK)YFAHK(-γE-AEEA-AEEA-ODDA)DIIW [BX-103]	14.93%@100nM	45.51%@10nM	–	–
Fum-D cyclo(EEAK)YFAHLDIIW (Fumaroyl-DEEAKYFAHLDIIW; lactam (positions not given here)) [BX-102]	155.47%	113.81%	–	–
Fum-DEE(C16)AVYFAHLDIIW ({Fumaroyl-Asp-Glu-E(C16)}-AVYFAHLDIIW; not fully specified; printed as Fum-DEE(C16)AVYFAHLDIIW) [BX14-1]	–	–	15.80	18.63
Fum-DEEAK(-γE-AEEA-AEEA-ODDA)YFAHLDIIW [BX-67] (Fum-DEEAK with lipidated linker N-terminal)	46.98%@100nM	2.68%@10nM	–	–
Fum-DEEAK(-γE-AEEA-AEEA-ODDA)YFAHLDIIW [BX-109] (Fum-DEEAK with lipidated linker N-terminal)	74.1%@100nM	-1095.4%@10nM	–	–
Fum-DEEAK(-γE-AEEA-AEEA-ODDA)YFAHLDVIW (Fum-DEEAK with lipidated linker N-terminal) [BX-110]	132.61%@100nM	138.99%@10nM	–	–
Fum-DEEAKYFAHK(-γE-AEEA-AEEA-ODDA)DIIW (Fumaroyl-DEEAKYFAHK([γGlu-AEEA-AEEA-C18 diacid])DIIW) [BX-107]	100.37%@100nM	50.48%@10nM	–	–
Fum-DEEAKYFAHK(-γE-AEEA-AEEA-ODDA)DVIW (Fumaroyl-DEEAKYFAHK([γGlu-AEEA-AEEA-C18 diacid])DVIW) [BX-108]	9.56%@100nM	-1185.11%@10nM	–	–
Fum-DEEAKYFAHLDIIW (Fumaroyl-DEEAKYFAHLDIIW) [BX-105]	253.05%@100nM	64.66%@10nM	–	–
Fum-DEEAKYFAHLDVIW (Fumaroyl-DEEAKYFAHLDVIW) [BX-106]	117.63%@100nM	117.57%@10nM	–	–
Fum-DEEAVYFAHK(-γE-AEEA-AEEA-ODDA)DVIW (Fumaroyl-DEEAVYFAHK([γGlu-AEEA-AEEA-C18 diacid])DVIW) [BX-101]	30.96%	–	–	–
Fum-DEEAVYFAHKDVIW (Fumaroyl-DEEAVYFAHKDVIW) [BX-23]	89.28%@100nM	26.12%@10nM	–	–
Fum-DEEAVYFAHL(N-Me)DI(N-Me)IW (Fumaroyl-DEEAVYFAH[NMeL]; not fully specified (C-terminus)) [BX-29]	6.51%@100nM	15.61%@10nM	–	–
Fum-DEEAVYFAHL(N-Me)DIIW (Fumaroyl-DEEAVYFAH[NMeL]; not fully specified (C-terminus)) [BX-28]	-10.73%@100nM	8.27%@10nM	–	–
Fum-DEEAVYFAHLDVIW (Fumaroyl-DEEAVYFAHLDVIW) [FBX-7]	99.81%@100nM	91.89%@10nM	–	–
Fum-DEEAVYFAHOrn(-AEEA-AEEA-γE-ODDA)DIIW [BX-51]	37.60%@100nM	47.83%@10nM	–	–
Fum-DEEAVYFK(-γE-AEEA-AEEA-ODDA)HLDIIW (Fumaroyl-DEEAVYFK([γGlu-AEEA-AEEA-C18 diacid])-{H2N-Leu-Asp-Ile-Ile-Trp}) [BX-68]	-18.64%@100nM	-39.42%@10nM	–	–
Fum-DEEE(Biotin)VYFAHKDIIW [BX-16]	22.24%@1µM and 14.10%@10µM	–	–	–
Fum-DEEEVYFAHK(-AEEA-AEEA-γE - ODDA)DIIW (Fumaroyl-DEEEVYFAHK([AEEA-AEEA-γGlu-C18 diacid])DIIW) [BX-60]	4.84%@100nM	-15.72%@10nM	–	–
MeO-Fum-D cyclo(EEAK)YFAHLD(2-Abu)IW [BX-65]	99.24%@100nM	59.02%@10nM	–	–
MeO-Fum-DEEAVYFAHK(-γE-AEEA-AEEA-ODDA)DIIW ({MeO‑Fum}-DEEAVYFAHK([γGlu-AEEA-AEEA-C18 diacid])DIIW) [BX-75]	-10.59%@100nM	14.68%@10nM	–	–
SA-DEEAVYFAHLDIIW ({Hexadienoyl(2E,4E)}-DEEAVYFAHLDIIW) [BX-111]	64.98%@100nM	-11.84%@10nM	–	–
Suc-DEEAVYFAHL(N-Me)DI(N-Me)IW (Suc-DEEAVYFAH[NMeL]; not fully specified (C-terminus)) [BX-27]	0.42%@100nM	1.72%@10nM	–	–
Suc-DEEAVYFAHL(N-Me)DIIW (Suc-DEEAVYFAH[NMeL]; not fully specified (C-terminus)) [BX-26]	30.58%@100nM	11.94%@10nM	–	–
Suc-DEEAVYFAHLDI(N-Me)IW (Suc-DEEAVYFAHLDI[NMeI]W) [BX-25]	28.86%@100nM	19.19%@10nM	–	–
Suc-DEEAVYFAHOrn(-AEEA-AEEA-γE - ODDA)DIIW [BX-61]	40.94%@100nM	13.97%@10nM	–	–
